Results on six substances are retold here after the supplement of paper PMC5998384.

Series [1] concerns HeLa Kyoto. Briefly: solubility change mitosis vs G1/S (difference of NP-40 vs SDS log2 ratios) (log2 ratio difference); higher = more soluble in mitosis.
The subject of series [2] is HeLa Kyoto. Briefly: thermal stability score vs G1/S (z-score of summed log2 fold changes over temperatures); higher = more thermally stable than in G1/S.
In series [3] the test system is HeLa Kyoto. Briefly: melting temperature (median over replicates), in situ; higher = more thermally stable.
The subject of series [4] is HeLa Kyoto. Briefly: solubility in G1/S (NP-40 vs SDS abundance) (log2 ratio); higher = more soluble. Conditions: cell cycle stage: G1/S.
Setting [5] is: cell cycle stage: early G1 (4.5 h after nocodazole release).
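Wherever melting temperature (median over replicates), in situ is given: HeLa Kyoto cells synchronized by double thymidine or nocodazole block, proteins quantified by TMT10plex mass spectrometry, three independent biological replicates.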
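Wherever solubility change mitosis vs G1/S (difference of NP-40 vs SDS log2 ratios) is given: synchronized HeLa Kyoto cells (double thymidine block for G1/S, nocodazole release for mitosis), protein amounts in NP-40 versus SDS lysates quantified by mass spectrometry, three biological replicates.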
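Wherever solubility in G1/S (NP-40 vs SDS abundance) is given: HeLa Kyoto cells arrested at G1/S by double thymidine block, proteins quantified by TMT10plex mass spectrometry in mild NP-40 versus SDS extracts, three biological replicates.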
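Wherever thermal stability score vs G1/S (z-score of summed log2 fold changes over temperatures) is given: synchronized HeLa Kyoto cells, proteins quantified by TMT10plex mass spectrometry, three biological replicates, mitosis taken 0.5 h after nocodazole release, G1/S directly after double thymidine block.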

Consider “MNPRQGYSLSGYYTHPFQGYEHRQLRYQQPGPGSSPSSFLLKQIEFLKGQLPEAPVIGKQTPSLPPSLPGLRPRFPVLLASSTRGRQVDIRGVPRGVHLRSQGLQRGFQHPSPRGRSLPQRGVDCLSSHFQELSIYQDQEQRILKFLEELGEGKATTAHDLSGKLGTPKKEINRVLYSLAKKGKLQKEAGTPPLWKIAVSTQAWNQHSGVVRPDGHSQGAPNSDPSLEPEDRNSTSVSEDLLEPFIAVSAQAWNQHSGVVRPDSHSQGSPNSDPGLEPEDSNSTSALEDPLEFLDMAEIKEKICDYLFNVSDSSALNLAKNIGLTKARDINAVLIDMERQGDVYRQGTTPPIWHLTDKKRERMQIKRNTNSVPETAPAAIPETKRNAEFLTCNIPTSNASNNMVTTEKVENGQEPVIKLENRQEARPEPARLKPPVHYNGPSKAGYVDFENGQWATDDIPDDLNSIRAAPGEFRAIMEMPSFYSHGLPRCSPYKKLTECQLKNPISGLLEYAQFASQTCEFNMIEQSGPPHEPRFKFQVVINGREFPPAEAGSKKVAKQDAAMKAMTILLEEAKAKDSGKSEESSHYSTEKESEKTAESQTPTPSATSFFSGKSPVTTLLECMHKLGNSCEFRLLSKEGPAHEPKFQYCVAVGAQTFPSVSAPSKKVAKQMAAEEAMKALHGEATNSMASDNQPEGMISESLDNLESMMPNKVRKIGELVRYLNTNPVGGLLEYARSHGFAAEFKLVDQSGPPHEPKFVYQAKVGGRWFPAVCAHSKKQGKQEAADAALRVLIGENEKAERMGFTEVTPVTGASLRRTMLLLSRSPEAQPKTLPLTGSTFHDQIAMLSHRCFNTLTNSFQPSLLGRKILAAIIMKKDSEDMGVVVSLGTGNRCVKGDSLSLKGETVNDCHAEIISRRGFIRFLYSELMKYNSQTAKDSIFEPAKGGEKLQIKKTVSFHLYISTAPCGDGALFDKSCSDRAMESTESRHYPVFENPKQGKLRTKVENGEGTIPVESSDIVPTWDGIRLGERLRTMSCSDKILRWNVLGLQGALLTHFLQPIYLKSVTLGYLFSQGHLTRAICCRVTRDGSAFEDGLRHPFIVNHPKVGRVSIYDSKRQSGKTKETSVNWCLADGYDLEILDGTRGTVDGPRNELSRVSKKNIFLLFKKLCSFRYRRDLLRLSYGEAKKAARDYETAKNYFKKGLKDMGYGNWISKPQEEKNFYLCPV [ADAR]”, for which the “solubility change mitosis (log2)” value in the series with HeLa Kyoto [1] stood at 0.346. In addition, the results for the thermal stability score with HeLa Kyoto [2] (setting [5]) and with HeLa Kyoto [2] (cell cycle stage: mitosis) were 2.76 and 5.55, respectively. In addition, the melting temperature is 47.9 °C in the series on HeLa Kyoto [3] (cell cycle stage: G1/S) and 49 °C in the series on HeLa Kyoto [3] (cell cycle stage: mitosis). The “solubility in G1/S (log2)” value with HeLa Kyoto [4] was -0.466.
In the case of “MEEVRCPEHGTFCFLKTGVRDGPNKGKSFYVCRADTCSFVRATDIPVSHCLLHEDFVVELQGLLLPQDKKEYRLFFRCIRSKAEGKRWCGSIPWQDPDSKEHSVSNKSQHASETFHHSSNWLRNPFKVLDKNQEPALWKQLIKGEGEEKKADKKQREKGDQLFDQKKEQKPEMMEKDLSSGLVPKKKQSVVQEKKQEEGAEIQCEAETGGTHKRDFSEIKSQQCQGNELTRPSASSQEKSSGKSQDVQRESEPLREKVTQLLPQNVHSHNSISKPQKGGPLNKEYTNWEAKETKAKDGPSIQATQKSLPQGHFQERPETHSVPAPGGPAAQAAPAAPGLSLGEGREAATSSDDEEEDDVVFVSSKPGSPLLFDSTLDLETKENLQFPDRSVQRKVSPASGVSKKVEPSDPVARRVYLTTQLKQKKSTLASVNIQALPDKGQKLIKQIQELEEVLSGLTLSPEQGTNEKSNSQVPQQSHFTKTTTGPPHLVPPQPLPRRGTQPVGSLELKSACQVTAGGSSQCYRGHTNQDHVHAVWKITSEAIGQLHRSLESCPGETVVAEDPAGLKVPLLLHQKQALAWLLWRESQKPQGGILADDMGLGKTLTMIALILTQKNQEKKEEKEKSTALTWLSKDDSCDFTSHGTLIICPASLIHHWKNEVEKRVNSNKLRVYLYHGPNRDSRARVLSTYDIVITTYSLVAKEIPTNKQEAEIPGANLNVEGTSTPLLRIAWARIILDEAHNVKNPRVQTSIAVCKLQACARWAVTGTPIQNNLLDMYSLLKFLRCSPFDEFNLWRSQVDNGSKKGGERLSILTKSLLLRRTKDQLDSTGRPLVILPQRKFQLHHLKLSEDEETVYNVFFARSRSALQSYLKRHESRGNQSGRSPNNPFSRVALEFGSEEPRHSEAADSPRSSTVHILSQLLRLRQCCCHLSLLKSALDPMELKGEGLVLSLEEQLSALTLSELRDSEPSSTVSLNGTFFKMELFEGMRESTKISSLLAELEAIQRNSASQKSVIVSQWTNMLKVVALHLKKHGLTYATIDGSVNPKQRMDLVEAFNHSRGPQVMLISLLAGGVGLNLTGGNHLFLLDMHWNPSLEDQACDRIYRVGQQKDVVIHRFVCEGTVEEKILQLQEKKKDLAKQVLSGSGESVTKLTLADLRVLFGI [TTF2]”, the “solubility change mitosis (log2)” value with HeLa Kyoto [1] was -0.0303. For the same substance, the thermal stability score turned out to be 0.916 in the series with HeLa Kyoto [2] (setting [5]) and 0.826 with HeLa Kyoto [2] (cell cycle stage: mitosis). In addition, the melting temperature is 48.3 °C in the series on HeLa Kyoto [3] (cell cycle stage: G1/S) and 49.1 °C in the series with HeLa Kyoto [3] (cell cycle stage: mitosis). Further, the “solubility in G1/S (log2)” value with HeLa Kyoto [4] was -0.107.
Take “MAATAAEAVASGSGEPREEAGALGPAWDESQLRSYSFPTRPIPRLSQSDPRAEELIENEEPVVLTDTNLVYPALKWDLEYLQENIGNGDFSVYSASTHKFLYYDEKKMANFQNFKPRSNREEMKFHEFVEKLQDIQQRGGEERLYLQQTLNDTVGRKIVMDFLGFNWNWINKQQGKRGWGQLTSNLLLIGMEGNVTPAHYDEQQNFFAQIKGYKRCILFPPDQFECLYPYPVHHPCDRQSQVDFDNPDYERFPNFQNVVGYETVVGPGDVLYIPMYWWHHIESLLNGGITITVNFWYKGAPTPKRIEYPLKAHQKVAIMRNIEKMLGEALGNPQEVGPLLNTMIKGRYN [HIF1AN]”: the “solubility change mitosis (log2)” value in the series with HeLa Kyoto [1] was -0.0585. Besides, the thermal stability score is 0.637 with HeLa Kyoto [2] (setting [5]) and 1.68 in the series on HeLa Kyoto [2] (cell cycle stage: mitosis). Further, the melting temperature was 52.3 °C with HeLa Kyoto [3] (cell cycle stage: G1/S) and 51.7 °C in the series on HeLa Kyoto [3] (cell cycle stage: mitosis). Besides, the “solubility in G1/S (log2)” value in the series with HeLa Kyoto [4] worked out at 0.273.
Consider “MAEAEEQETGSLEESTDESEEEESEEEPKLKYERLSNGVTEILQKDAASCMTVHDKFLALGTHYGKVYLLDVQGNITQKFDVSPVKINQISLDESGEHMGVCSEDGKVQVFGLYSGEEFHETFDCPIKIIAVHPHFVRSSCKQFVTGGKKLLLFERSWMNRWKSAVLHEGEGNIRSVKWRGHLIAWANNMGVKIFDIISKQRITNVPRDDISLRPDMYPCSLCWKDNVTLIIGWGTSVKVCSVKERHASEMRDLPSRYVEIVSQFETEFYISGLAPLCDQLVVLSYVKEISEKTEREYCARPRLDIIQPLSETCEEISSDALTVRGFQENECRDYHLEYSEGESLFYIVSPRDVVVAKERDQDDHIDWLLEKKKYEEALMAAEISQKNIKRHKILDIGLAYINHLVERGDYDIAARKCQKILGKNAALWEYEVYKFKEIGQLKAISPYLPRGDPVLKPLIYEMILHEFLESDYEGFATLIREWPGDLYNNSVIVQAVRDHLKKDSQNKTLLKTLAELYTYDKNYGNALEIYLTLRHKDVFQLIHKHNLFSSIKDKIVLLMDFDSEKAVDMLLDNEDKISIKKVVEELEDRPELQHVYLHKLFKRDHHKGQRYHEKQISLYAEYDRPNLLPFLRDSTHCPLEKALEICQQRNFVEETVYLLSRMGNSRSALKMIMEELHDVDKAIEFAKEQDDGELWEDLILYSIDKPPFITGLLNNIGTHVDPILLIHRIKEGMEIPNLRDSLVKILQDYNLQILLREGCKKILVADSLSLLKKMHRTQMKGVLVDEENICESCLSPILPSDAAKPFSVVVFHCRHMFHKECLPMPSMNSAAQFCNICSAKNRGPGSAILEMKK [VPS41]”, for which the “solubility change mitosis (log2)” value with HeLa Kyoto [1] was -0.131. In addition, the thermal stability score was 0.549 in the series on HeLa Kyoto [2] (setting [5]) and 0.342 in the series with HeLa Kyoto [2] (cell cycle stage: mitosis). Also, the melting temperature with HeLa Kyoto [3] (cell cycle stage: G1/S) is 50.2 °C; in the series on HeLa Kyoto [3] (cell cycle stage: mitosis) it was 49.8 °C. Besides, the “solubility in G1/S (log2)” value with HeLa Kyoto [4] is -0.0889.
Take “MAAAAARVVLSSAARRRLWGFSESLLIRGAAGRSLYFGENRLRSTQAATQVVLNVPETRVTCLESGLRVASEDSGLSTCTVGLWIDAGSRYENEKNNGTAHFLEHMAFKGTKKRSQLDLELEIENMGAHLNAYTSREQTVYYAKAFSKDLPRAVEILADIIQNSTLGEAEIERERGVILREMQEVETNLQEVVFDYLHATAYQNTALGRTILGPTENIKSISRKDLVDYITTHYKGPRIVLAAAGGVSHDELLDLAKFHFGDSLCTHKGEIPALPPCKFTGSEIRVRDDKMPLAHLAIAVEAVGWAHPDTICLMVANTLIGNWDRSFGGGMNLSSKLAQLTCHGNLCHSFQSFNTSYTDTGLWGLYMVCESSTVADMLHVVQKEWMRLCTSVTESEVARARNLLKTNMLLQLDGSTPICEDIGRQMLCYNRRIPIPELEARIDAVNAETIREVCTKYIYNRSPAIAAVGPIKQLPDFKQIRSNMCWLRD [PMPCB]”: the “solubility change mitosis (log2)” value in the series on HeLa Kyoto [1] is -0.0473. Moreover, the thermal stability score was -0.694 in the series on HeLa Kyoto [2] (setting [5]) and -1.33 in the series with HeLa Kyoto [2] (cell cycle stage: mitosis). Besides, the values for the melting temperature with HeLa Kyoto [3] (cell cycle stage: G1/S) and in the series on HeLa Kyoto [3] (cell cycle stage: mitosis) were 51.7 °C and 52.1 °C, respectively. Further, the “solubility in G1/S (log2)” value in the series with HeLa Kyoto [4] came out at 0.179.
As to ASCC1, the “solubility change mitosis (log2)” value with HeLa Kyoto [1] turned out to be 0.0348. Further, the thermal stability score in the series on HeLa Kyoto [2] (setting [5]) came out at 1.88; in the series with HeLa Kyoto [2] (cell cycle stage: mitosis), 1.1. The melting temperature was 50.3 °C in the series with HeLa Kyoto [3] (cell cycle stage: G1/S) and 50.7 °C in the series with HeLa Kyoto [3] (cell cycle stage: mitosis). For the same substance, the “solubility in G1/S (log2)” value with HeLa Kyoto [4] is -0.115.
